According to patent publication US20090123479A1 (published 2009):

How the values were obtained:
recombinant human IL-23 [1] = molecular target: T1, recombinant human IL-23 (human, UniProt Q9NPF7 20-189; P29460 23-328); assay: IL-23/IL-23R inhibition ELISA (first protocol, OD490): plate coated with human IL23R Fc chimera, antibody pre-incubated with constant human IL-23, bound IL-23 detected with biotinylated anti-human IL-12; tissue culture supernatant
T1 construct: also called hIL-23
T1 sequence 1: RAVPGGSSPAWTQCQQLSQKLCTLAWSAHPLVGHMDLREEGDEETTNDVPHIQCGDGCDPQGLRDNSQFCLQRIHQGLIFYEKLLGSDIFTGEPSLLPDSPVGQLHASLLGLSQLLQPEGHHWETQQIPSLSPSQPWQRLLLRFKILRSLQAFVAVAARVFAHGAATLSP
T1 sequence 2: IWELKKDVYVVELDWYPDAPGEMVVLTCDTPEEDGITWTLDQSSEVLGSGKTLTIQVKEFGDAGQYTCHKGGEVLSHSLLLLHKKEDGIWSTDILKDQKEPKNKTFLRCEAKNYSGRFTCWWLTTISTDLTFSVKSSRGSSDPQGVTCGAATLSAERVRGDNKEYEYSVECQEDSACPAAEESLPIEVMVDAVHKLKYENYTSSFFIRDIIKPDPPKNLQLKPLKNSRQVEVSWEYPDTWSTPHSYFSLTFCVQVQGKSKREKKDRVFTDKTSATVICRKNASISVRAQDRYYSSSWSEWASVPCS
Method: Chimeric and humanized mAbs were assessed for their ability to neutralise human IL-23 binding to human IL-23 receptor, and cyno IL23 binding to human IL23 receptor. Plates were coated with human IL23R Fc chimera at 1 μg/diluent (bicarbonate buffer). 50 μl/well of this mixture was incubated overnight at 4° C. The plates were then washed twice with Tris Buffered Saline with 0.05% Tween 20 (TBST). Plates were blocked with 1% BSA TBST 100 μl/well for a minimum of 1 hour at room temperature. The plates were then washed twice with Tris Buffered Saline with 0.05% Tween 20 (TBST). Various concentrations of antibody were incubated in a separate plate with a constant concentration of IL-23 for 1 hour at room temperature. 50 ul of each mixture were transferred to the assay plate and incubated at RT for 1 hr. They were then washed twice with Tris Buffered Saline with 0.05% Tween 20 (TBST). Bound IL23 was detected by anti human 1L12 Biotin labelled Ab (R&D systems BAF219) diluted to 100 ng/ml in 1% BSA TBST. 50 μl/well of the biotinylated antibody was added and incubated at RT for 1 hour. The plates were then washed twice with Tris Buffered Saline with 0.05% Tween 20 (TBST). ExtrAvidin-Peroxidase (Sigma E2886) was diluted 1/1000 in 1% BSA TBST, 50 μl/well was added to the plates. […] The plate was read at OD490 nm using the SOftmaxPRO versamax plate reader.

recombinant human IL-23 [2] = molecular target: T1, recombinant human IL-23; assay: SPR (Biacore 3000), purified antibody captured on Protein A or anti-human IgG, IL-23 analyte at 256, 64, 16, 4 nM
Method: (§1) Protein A or an anti-human IgG (Biacore BR-1008-39) was immobilised on a Biacore CM5 chip by primary amine coupling in accordance with the manufacturer's instructions. Anti IL-23 antibodies were captured on this surface and after a period of stabilisation, […] was passed over the antibody captured surface and a binding sensorgram was obtained. […] All runs were double referenced with a buffer injection over the captured antibody surface. Data was analysed using the 1:1 model using the software inherent to the Biacore 3000 or T100 depending upon which machine was used to generate kinetics. Analysis was carried out at 25° C. using HBS-EP buffer. Data presented in Tables 3-6 are on tissue culture supernatants of CHO cells transiently expressing the antibody of interest unless otherwise indicated. Data was generated using concentrations of IL-23 (256, 64, 16, 4, 1 and 0.25 nM) The data shown for the humanized variants is representative of a number of runs, The chimeric mAb (8C9H6.HC1LC1) was only run once in each experiment, so data shown for this mAb is from that one run, […]

recombinant human IL-23 [3] = molecular target: T1, recombinant human IL-23; assay: SPR (Biacore 3000), CHO supernatant antibody captured on Protein A or anti-human IgG, IL-23 analyte at 100, 10, 1 nM
Method: as §1, with “indicated.” for “indicated. Data was generated using concentrations of IL-23 (256, 64, 16, 4, 1 and 0.25 nM) The data shown for the humanized variants is representative of a number of runs, The chimeric mAb (8C9H6.HC1LC1) was only run once in each experiment, so data shown for this mAb is from that one run,”

recombinant human IL-23 [4] = molecular target: T1, recombinant human IL-23; assay: SPR (Biacore T100), transient material captured on Protein A or anti-human IgG, IL-23 analyte at 256, 64, 16, 4, 1 nM
Method: as §1

B1: chimeric 8C92H6 HC1LC1 (antibody, V domains shown)
VH: QVQLQQSGAELARPGTSVKLSCKASGYTFTSYGITWVKQRTGQGLEWIGENYPRSGNTYYNEKFKGKATLTADKSSSTAYMELRSLTSEDSAVYFCARCEFISTVVAPYYYALDYWGQGTSLVTVS
VL: DIVLTQSPASLAVSLGQKATISCKASKKVTIFGSISALHWYQQKPGQPPKLIYNGAKLESGVSARFSDSGSQNRSPFGNQLSFTLTIDPVEADDAATYYCLQNKEVPYTFGGGTKLEIKR
notes: Murine variable regions with human constant regions; also called 8C92H6.HC1LC1 Chimera; 8C9 chimera
With B1 the “IC50 (read off the curve)” value (recombinant human IL-23 [1]) was ~6 ng/mL, the Kd (recombinant human IL-23 [2]) was 1.8 nM and the koff (recombinant human IL-23 [2]) was 0.00044 s⁻¹. It also gave a kon (recombinant human IL-23 [2]) of 240000 M⁻¹ s⁻¹, a Kd (recombinant human IL-23 [3]) of 1.4 nM and a koff (recombinant human IL-23 [3]) of 0.00039 s⁻¹. The kon (recombinant human IL-23 [3]) was 270000 M⁻¹ s⁻¹, the Kd (recombinant human IL-23 [4]) was 1.8 nM and the koff (recombinant human IL-23 [4]) was 0.00038 s⁻¹. For the same binder, the kon (recombinant human IL-23 [4]) was 210000 M⁻¹ s⁻¹.
